In PMC3983144 (Bioconjugate chemistry, 2014) one finds IC50 data, which are given here for one molecule.

The assay addresses melanocortin 1 receptor (mouse (endogenous in B16F10), UniProt Q01727 1-315). Kind of assay: radioligand binding.

Square brackets hold non-standard residues; d marks the D form. Nle = CCCC[C@H](N)C(=O)O

Chain of melanocortin 1 receptor (Q01727 whole entry, one chain of several): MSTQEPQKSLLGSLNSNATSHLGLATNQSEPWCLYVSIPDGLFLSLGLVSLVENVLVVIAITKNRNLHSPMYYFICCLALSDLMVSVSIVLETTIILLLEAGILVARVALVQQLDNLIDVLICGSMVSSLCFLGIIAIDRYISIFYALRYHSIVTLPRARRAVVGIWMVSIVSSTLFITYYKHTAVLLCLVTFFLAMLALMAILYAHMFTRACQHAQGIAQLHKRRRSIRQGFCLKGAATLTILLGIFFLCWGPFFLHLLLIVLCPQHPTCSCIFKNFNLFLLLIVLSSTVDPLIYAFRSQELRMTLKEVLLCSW

B1: Ac-Cys-Nle-Asp-His-D-Phe-Arg-Trp-Gly-Lys-NH2 (peptide)
chain: Ac-C[Nle]DH[dF]RWGK-NH2
SMILES: CCCC[C@H](NC(=O)[C@H](CS)NC(C)=O)C(=O)N[C@@H](CC(=O)O)C(=O)N[C@@H](Cc1c[nH]cn1)C(=O)N[C@H](Cc1ccccc1)C(=O)N[C@@H](CCCNC(=N)N)C(=O)N[C@@H](Cc1c[nH]c2ccccc12)C(=O)NCC(=O)N[C@@H](CCCCN)C(N)=O
In the case of B1, the IC50 worked out at 2.19 ± 0.54 nM.
